B1: cap 0 160-mer (ssRNA)
RNA: GAAUACACGGAAUUCCUUUUUUUUUUUUUUUUUUUUUUUUAAGAAAGGCAGACUGCCACAUGCAGCGCCUCAUUUGGAUGUGUCUGGAGUCUUGGAAGCUUGACUACCCUACGUUCUCCUACAAAUGGACCUUGAGAGCUUGUUUGGAGGUUCUAGCAGG
modifications: 5' cap 0 (m7Gppp), Vaccinia Capping System

Key:
[1] = system: IFIT1 (His-SUMO removed) (Homo sapiens); assay: MST; conditions: apparent Kd; 10 nM RNA, protein up to 1 uM; 5' cap 0 (m7Gppp), Vaccinia Capping System; MST: PBS, 5% glycerol, 0.5 mM TCEP, 0.05% Tween20, 22 C. Pull-down: 50 mM Tris pH 7.5, 150 mM NaCl (wash 250 mM), 1 mM DTT, 5 mM imidazole, 0.01% Tween 20, 3 mM
IFIT1 (6xHis) = target: T1, IFIT1 (6xHis) (Homo sapiens, UniProt P09914 1-478); assay: pull-down; Con-B; mix of four RNAs; poly(dI-dC) 2 ug/ml; 3 mM MgCl2; MST: PBS, 5% glycerol, 0.5 mM TCEP, 0.05% Tween20, 22 C. Pull-down: 50 mM Tris pH 7.5, 150 mM NaCl (wash 250 mM), 1 mM DTT, 5 mM imidazole, 0.01% Tween 20, 3 mM MgCl2, 2 ug/ml poly(dI-dC), 4 C; conditions: protein: recombinant; tags: 6xHis (pETG10a; tag described as N-terminal); single-stranded 5' end (predicted)
T1 sequence: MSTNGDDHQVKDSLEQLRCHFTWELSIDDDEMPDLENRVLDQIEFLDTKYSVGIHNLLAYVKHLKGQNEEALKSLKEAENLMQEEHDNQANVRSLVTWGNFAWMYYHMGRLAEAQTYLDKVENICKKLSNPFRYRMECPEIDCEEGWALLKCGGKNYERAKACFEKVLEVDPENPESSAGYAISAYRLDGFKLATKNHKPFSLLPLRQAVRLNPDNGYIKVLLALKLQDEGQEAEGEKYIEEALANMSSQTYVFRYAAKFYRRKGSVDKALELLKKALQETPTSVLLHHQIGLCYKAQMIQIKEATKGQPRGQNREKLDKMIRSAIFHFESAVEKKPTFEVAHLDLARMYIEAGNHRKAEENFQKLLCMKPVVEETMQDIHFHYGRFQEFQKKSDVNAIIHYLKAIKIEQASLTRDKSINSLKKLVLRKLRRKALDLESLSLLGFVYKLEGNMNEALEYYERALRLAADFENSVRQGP

Molecule	Kd [1] [nM]	binding result (IFIT1 (6xHis))
Cap 0-100-mer (Cy5)	47	
B1		binds
